Data as given in patent publication US9091696B2, “Modulation of NR2F6 and methods and uses thereof” (Regen Biopharma, Inc., priority 2008, dated 2015).
Where a chain is given by its changes, count along the chain named.

Columns and labels:
U937 GFP cells = experiment: Cell cycle analysis by propidium iodide DNA content after atRA; type: cell-based, human; conditions: control U937 GFP cells; FIG. 3B
Description: Differentiation was induced in the U937 cell line by treatment with 10 nM TPA (Sigma), 1 uM ATRA (Sigma), or 1.25% v/v DMSO (Sigma) respectively. Immunostaining for the maturation marker CD11b (eBioscience) was performed for twenty minutes in the dark according to manufacturer's instructions and cells were analysed by flow cytometry. Nitroblue tetrazolium (NBT) reduction test (Sigma) was performed according to the manufacturer's instructions, with a minimum of 300 cells scored per slide in three different fields of view. Each experimental timepoint was conducted in triplicate.
Overexpression of NR2F6 is able to override the growth arrest associated with differentiation and maturation, in particular maturation and differentiation induced by all-trans retinoic acid (FIG. 3). […] Growth of U937 cells expressing either GFP of NR2F6-IRES-GFP was monitored by counting using trypan blue following treatment of cells with atRA (FIG. 3A). U937 cells expressing either GFP of NR2F6-IRES-GFP were treated with atRA. DNA content was assessed using propidium iodide in order to determine which phase of the cell cycle the cells in each respective population resided in (FIG. 3B).

32Dcl3-NR2F6 cells = experiment: G-CSF induced differentiation of NR2F6 over-expressing cells after HDAC inhibitor pretreatment (cell surface CD11b); type: cell-based, mouse; conditions: pretreatment prior to G-CSF; non-treated 32Dcl3-NR2F6 cells failed to differentiate; FIG. 32
Text: It has been reported that NR2F6 exerts its regulatory effects primarily as a transcriptional repressor (Liu, X., Huang, X., and Sigmund, C. D. (2003). Identification of a nuclear orphan receptor (Ear2) as a negative regulator of renin gene transcription. Circ Res 92, 1033-1040.). The repressor activity of nuclear receptors is mediated by recruitment of corepressors with histone deacetylase (HDAC) activity; we therefore evaluated the importance of this mechanism in the effects of NR2F6 on haematopoiesis and evaluated weather the activity of NR2F6 can be modulated with an HDAC inhibitor. 32Dcl3-NR2F6 cells were incubated with the non-specific histone deacetylase inhibitor sodium butyrate prior to treatment with G-CSF.

[1] = system: 32Dcl3 mouse hematopoietic cells; experiment: shRNA knock down of NR2F6, differentiation by cytospins and flow cytometry; type: cell-based; conditions: vs pSiren universal negative control, FIG. 26
Description: Knock down of NR2F6 using short-hairpin RNAs induces differentiation and maturation of 32Dcl3 mouse hematopoietic cells (FIG. 26).
(§1) Oligonucleotides targeting human or mouse EAR-2 were synthesized (Sigma), annealed and cloned into the pSiren vector (Clontech), after which sequence was verified (The Centre for Applied Genomics, Toronto). Virus was prepared by transient transfection of plasmid in the 293GPG cell line as described above. Knockdown was confirmed by western blot for these vectors in cell lines and by qPCR in bone marrow cells (data not shown and (17)).

Murine bone marrow cells = experiment: shRNA knock down of NR2F6 in ex vivo bone marrow suspension culture (flow cytometry, morphology); type: cell-based, mouse
Description: Murine bone marrow cells were cultured in conditions that preserved stem cell maintenance (c-kit ligand; thrombopoietin; and Flt3 ligand in OP9 conditioned medium) and transduced with either an shRNA targeting NR2F6 or a scrambled control shRNA. Following seven days in culture cells were analysed by flow cytometry.

bone marrow cells = experiment: Methylcellulose colony formation and replating after silencing of EAR-2 (NR2F6); type: cell-based, mouse; conditions: cytokines promoting multilineage or erythroid progenitor differentiation; FIG. 58
Description: We assessed the effects of silencing of EAR-2 expression on colony formation in vitro. […] In replating experiments we observed a significant decrease in secondary colonies in cells in which EAR-2 expression was silenced FIG. 59.
• The 293GPG retroviral packaging cell line (a gift of Richard Mulligan, Harvard University) was grown in DMEM medium supplemented with 10% FBS, tetracycline ([…]), G418 (0.3 mg/mL) and puromycin ([…]). Human EAR-2 cDNA (a kind gift from John Ladias, Harvard University) or Mus EAR-2 cDNA (a kind gift from, Curt D. Sigmund, University of Iowa) was subcloned into the pcDNA3.1V5/HIS vector (Invitrogen). […] Real time PCR was performed according to manufacturer's instructions using SYBR Green Master Mix (Applied Biosystems, Foster City, Calif.) and analyzed using the delta-delta CT method (16). Bone Marrow Transduction • Using the retroviral constructs described above, we forced expression of EAR-2 in primary murine BM cells and monitored the effects on differentiation using colony assays. […] Forty-eight hours after retroviral infection GFP-positive cells were collected by fluorescence activated cell sorting (FACS). […] GFP-positive cells were purified by fluorescence activated cell sorting (FACS) and cultured in methylcellulose medium containing hematopoietic growth factors that favored multilineage differentiation. […]

[2] = system: U937 human myelomonocytic leukemia cells; experiment: shRNA knock down of NR2F6, differentiation by cytospins and flow cytometry; type: cell-based; conditions: vs pSiren universal negative control, FIG. 27
Description: Knock down of NR2F6 using short-hairpin RNAs induces terminal differentiation, blood cell maturation death of U937 human leukemia cells (FIG. 27).
as §1

## CC1=C(/C=C/C(C)=C/C=C/C(C)=C/C(=O)O)C(C)(C)CCC1 [atRA, all-trans retinoic acid]
U937 GFP cells
  number of cells in S/G2/M phases of the cell cycle: drastic decrease in the number of cells in S/G2/M phases

## CCCC(=O)[O-].[Na+] [sodium butyrate]
32Dcl3-NR2F6 cells
  G-CSF induced differentiation (cell surface CD11b expression): showed recovery of G-CSF induced differentiation

B1: Mus shNR2F6: short-hairpin RNA targeting mouse NR2F6, SEQ ID NO: 5, cloned into the pSiren vector (nucleic acid)
DNA: GATCCGCATTACGGCGTGTTCACCTTCAAGAGAGGTGAACACGCCGTAATGCTTTTTTCTAGAG
[1]
  myeloid cell differentiation: induces spontaneous myeloid cell differentiation
Murine bone marrow cells; flow cytometry (FIG. 30) and morphology (FIG. 31)
  differentiation and maturation of bone marrow cells into neutrophils: promoted the differentiation and maturation of bone marrow cells into neutrophils
Murine bone marrow cells; seven days in culture, vs scrambled shRNA control, flow cytometry, FIG. 28
  number of immature cells (devoid of markers of lineage commitment): dramatically reduced the number of immature cells
Murine bone marrow cells; seven days in culture, vs scrambled shRNA control, flow cytometry, FIG. 29
  number of stem cells (ckit+Sca-1+lineage-, KSL cells): dramatically reduced
Bone marrow cells
  colony size in methylcellulose: increase in the size of colonies

B2: Human shNR2F6: short-hairpin RNA targeting human NR2F6, SEQ ID NO: 6, cloned into the pSiren vector (nucleic acid)
DNA: B1 DNA with C15T, G18C, C40G, G43A
[2]
  myeloid cell differentiation: induces spontaneous myeloid cell differentiation
